What was measured:
[1] = biological target: T1, truncated Mam protein (carboxy-terminal 32 amino acids of full-length Drosophila Mastermind deleted) fused to … (Drosophila, UniProt P21519 1-1562); test: yeast two-hybrid, lacZ reporter
T1 construct: also called truncated Mam fusion protein
Source text: FIG. 13 is a graph showing Mam-Mip complex driven transcription in a two-hybrid analysis in yeast. The yeast strain EGY48 was co-transformed with a plasmid encoding a Mam-Gal4 DNA binding domain fusion protein and either a plasmid encoding Mip1, Mip30 or Mip6 fused to the E. coli B42 transactivation domain, or a control plasmid (pJG4-5). The DNA binding domain was derived from plasmid pEG202. […] In the presence of glucose, the expression of Mam is repressed and only a very low level of β-galactosidase activity is detected. In the presence of galactose, the expression of Mam is induced and a large increase in β-galactosidase activity is observed with those proteins that interact with Mam. Extracts were prepared and activity measured from equal number of cells.
To elucidate the function of Mam and its role in Notch signaling, proteins with which Mam interacts were identified. Complementary DNA encoding a truncated Mam protein, in which the carboxy-terminal 32 amino acids of full-length Mam were deleted, was fused to the Gal4 DNA-binding domain encoded by the yeast expression vector pEG202. A truncated Mam fusion protein was used because it elicited a lower autonomous transactivational response from yeast reporter genes than full-length Mam. […]

[2] = biological target: T2, Drosophila Mastermind (Mam) tagged at its amino terminus with the Flag epitope, expressed from pcDNA3 in 293T … (Drosophila, UniProt P21519 1-1594); test: co-expression in 293T cells, indirect immunofluorescence
T2 construct: Expressed inside transfected human 293T cells
Source text: Mastermind and the entire intracellular domain of Drosophila Notch were co-expressed from pcDNA3 vectors (obtained from Invitrogen, Carlsbad, Calif.). Intracellular Notch was visualized with the 9C6 monoclonal antibody (Rebay, 1983, Thesis, Yale University) and a Cy-2-conjugated goat anti-mouse IgG secondary antibody. Flag epitope-tagged Mam was visualized with an anti-Flag polyclonal antibody and a Cy-5-conjugated goat anti-rabbit secondary antibody. Nuclei were counterstained with DAPI. In the absence of Mam, intracellular Notch is homogeneously distributed throughout the nucleoplasm; however, when co-expressed with Mam, intracellular Notch accumulates in nuclear bodies.

T2 sequence (P21519 other isoform, or with tags, fused parts or gaps): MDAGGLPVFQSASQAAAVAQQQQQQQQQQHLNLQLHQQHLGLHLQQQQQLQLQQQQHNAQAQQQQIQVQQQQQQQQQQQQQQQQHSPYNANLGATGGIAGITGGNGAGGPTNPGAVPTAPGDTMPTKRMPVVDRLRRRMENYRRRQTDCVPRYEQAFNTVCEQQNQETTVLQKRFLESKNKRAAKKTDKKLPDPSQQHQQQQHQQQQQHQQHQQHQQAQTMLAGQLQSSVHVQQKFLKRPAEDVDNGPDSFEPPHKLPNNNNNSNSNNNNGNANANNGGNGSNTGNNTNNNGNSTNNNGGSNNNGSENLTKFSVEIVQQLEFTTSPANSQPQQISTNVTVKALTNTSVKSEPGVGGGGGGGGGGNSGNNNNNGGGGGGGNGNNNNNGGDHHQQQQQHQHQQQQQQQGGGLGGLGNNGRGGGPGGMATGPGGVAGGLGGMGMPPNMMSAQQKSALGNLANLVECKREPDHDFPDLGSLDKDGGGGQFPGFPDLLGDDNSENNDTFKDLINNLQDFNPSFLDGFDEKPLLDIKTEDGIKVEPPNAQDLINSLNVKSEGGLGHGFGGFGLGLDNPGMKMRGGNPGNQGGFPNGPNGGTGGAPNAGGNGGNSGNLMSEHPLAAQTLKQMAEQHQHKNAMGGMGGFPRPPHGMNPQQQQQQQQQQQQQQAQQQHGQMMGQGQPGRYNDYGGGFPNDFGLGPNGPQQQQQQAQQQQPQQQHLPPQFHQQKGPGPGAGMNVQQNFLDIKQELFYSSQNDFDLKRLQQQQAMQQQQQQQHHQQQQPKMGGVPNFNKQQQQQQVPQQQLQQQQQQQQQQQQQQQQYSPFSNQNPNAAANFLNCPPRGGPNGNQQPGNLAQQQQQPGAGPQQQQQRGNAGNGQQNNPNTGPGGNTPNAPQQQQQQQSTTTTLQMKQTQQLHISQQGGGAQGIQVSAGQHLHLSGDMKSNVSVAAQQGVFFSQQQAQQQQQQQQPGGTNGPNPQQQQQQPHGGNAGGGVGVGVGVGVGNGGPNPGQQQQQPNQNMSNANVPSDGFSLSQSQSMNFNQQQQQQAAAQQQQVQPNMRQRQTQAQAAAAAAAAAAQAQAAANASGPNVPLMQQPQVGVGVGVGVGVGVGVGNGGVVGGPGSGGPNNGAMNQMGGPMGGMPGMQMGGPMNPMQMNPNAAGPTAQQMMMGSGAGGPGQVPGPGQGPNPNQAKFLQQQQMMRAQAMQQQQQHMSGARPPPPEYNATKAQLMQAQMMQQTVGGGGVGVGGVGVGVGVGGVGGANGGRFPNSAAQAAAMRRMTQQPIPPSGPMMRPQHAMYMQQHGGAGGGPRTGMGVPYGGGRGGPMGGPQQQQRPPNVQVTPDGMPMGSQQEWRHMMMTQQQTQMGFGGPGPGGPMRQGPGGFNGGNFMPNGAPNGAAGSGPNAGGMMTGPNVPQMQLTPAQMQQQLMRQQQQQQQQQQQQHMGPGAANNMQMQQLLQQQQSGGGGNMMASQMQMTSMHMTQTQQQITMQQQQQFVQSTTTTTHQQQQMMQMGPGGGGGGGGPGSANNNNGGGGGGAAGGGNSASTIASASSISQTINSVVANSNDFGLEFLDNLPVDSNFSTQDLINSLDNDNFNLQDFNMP
T1 sequence (P21519 other isoform, or with tags, fused parts or gaps limits assumed): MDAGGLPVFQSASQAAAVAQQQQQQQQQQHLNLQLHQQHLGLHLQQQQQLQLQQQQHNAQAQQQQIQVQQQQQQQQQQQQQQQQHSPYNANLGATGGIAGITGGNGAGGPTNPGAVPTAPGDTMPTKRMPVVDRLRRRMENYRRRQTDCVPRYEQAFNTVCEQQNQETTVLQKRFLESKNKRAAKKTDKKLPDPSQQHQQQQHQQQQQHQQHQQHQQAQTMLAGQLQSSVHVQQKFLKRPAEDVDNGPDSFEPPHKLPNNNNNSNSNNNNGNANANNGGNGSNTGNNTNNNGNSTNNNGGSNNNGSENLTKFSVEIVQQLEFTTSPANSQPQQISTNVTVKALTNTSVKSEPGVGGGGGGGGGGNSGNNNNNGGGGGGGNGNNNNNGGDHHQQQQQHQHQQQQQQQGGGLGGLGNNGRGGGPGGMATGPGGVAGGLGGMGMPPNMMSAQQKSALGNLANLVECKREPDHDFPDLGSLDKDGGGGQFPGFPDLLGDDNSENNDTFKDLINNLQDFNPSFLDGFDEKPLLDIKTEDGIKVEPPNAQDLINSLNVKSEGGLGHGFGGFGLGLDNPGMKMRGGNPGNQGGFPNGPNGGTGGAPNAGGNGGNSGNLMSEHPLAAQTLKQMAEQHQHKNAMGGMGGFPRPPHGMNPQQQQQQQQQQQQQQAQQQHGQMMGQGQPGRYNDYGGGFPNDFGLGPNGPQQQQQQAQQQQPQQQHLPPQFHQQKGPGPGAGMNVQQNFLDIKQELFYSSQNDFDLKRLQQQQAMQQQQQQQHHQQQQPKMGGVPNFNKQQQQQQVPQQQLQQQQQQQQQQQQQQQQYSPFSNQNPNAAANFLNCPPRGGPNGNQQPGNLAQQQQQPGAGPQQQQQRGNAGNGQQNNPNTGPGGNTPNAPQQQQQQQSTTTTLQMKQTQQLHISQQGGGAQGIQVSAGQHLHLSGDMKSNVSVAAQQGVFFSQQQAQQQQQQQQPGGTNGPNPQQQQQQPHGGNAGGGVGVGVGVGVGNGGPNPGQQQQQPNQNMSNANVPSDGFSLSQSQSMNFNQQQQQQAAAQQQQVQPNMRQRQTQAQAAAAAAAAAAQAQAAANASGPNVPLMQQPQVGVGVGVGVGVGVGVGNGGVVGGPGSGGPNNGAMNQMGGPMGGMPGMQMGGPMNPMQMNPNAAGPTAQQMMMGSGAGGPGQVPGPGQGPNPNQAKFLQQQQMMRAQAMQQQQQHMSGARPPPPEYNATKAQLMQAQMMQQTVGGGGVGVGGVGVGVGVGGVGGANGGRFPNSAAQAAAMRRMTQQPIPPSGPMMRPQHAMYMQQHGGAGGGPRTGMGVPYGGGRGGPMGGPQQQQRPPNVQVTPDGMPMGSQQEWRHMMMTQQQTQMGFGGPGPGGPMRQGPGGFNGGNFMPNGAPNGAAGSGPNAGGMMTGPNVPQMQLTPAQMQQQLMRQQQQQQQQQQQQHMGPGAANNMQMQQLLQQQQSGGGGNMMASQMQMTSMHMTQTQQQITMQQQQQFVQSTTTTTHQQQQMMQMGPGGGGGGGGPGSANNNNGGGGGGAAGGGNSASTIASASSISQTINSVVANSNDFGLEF

Binder | binding result [1] | binding result [2]
Mip6 two-hybrid clone, amino-terminally truncated, fused to the E. coli B42 transactivation domain encoded by pJG4-5 (other, not shown: large carriers) PKTKQSTFVVSPKPEPKSPAVAFLQPSIPLRSSNQPQTVVGSSSTGRKPLNVGLTMEWTKKKFFSAASGIPQRRQNQIKQPYANIVSPIRTYTQKSGTAPLMSTFRPTSSDMLSTLAISELEQESRLCHPKALFATKDETPKSSEAESLIINGIDSAADLLPKKAYISSEIKHVVDERTPLPMPKVPQIQKYLNSAVEPTVMRHDGKMKMPGEAVRNPSSSHIPRRANHSLADLSLASGDVSLYTIRDAQKF | binds | –
entire intracellular domain of Drosophila Notch, expressed from pcDNA3 in 293T cells (receptor, UniProt P07207 1767-2703, looked up, domain: entire intracellular domain; also called intracellular Notch) QRKRAHGVTWFPEGFRAPAAVMSRRRRDPHGQEMRNLNKQVAMQSQGVGQPGAHWSDDESDMPLPKRQRSDPVSGVGLGNNGGYASDHTMVSEYEEADQRVWSQAHLDVVDVRAIMTPPAHQDGGKHDVDARGPCGLTPLMIAAVRGGGLDTGEDIENNEDSTAQVISDLLAQGAELNATMDKTGETSLHLAARFARADAAKRLLDAGADANCQDNTGRTPLHAAVAADAMGVFQILLRNRATNLNARMHDGTTPLILAARLAIEGMVEDLITADADINAADNSGKTALHWAAAVNNTEAVNILLMHHANRDAQDDKDETPLFLAAREGSYEACKALLDNFANREITDHMDRLPRDVASERLHHDIVRLLDEHVPRSPQMLSMTPQAMIGSPPPGQQQPQLITQPTVISAGNGGNNGNGNASGKQSNQTAKQKAAKKAKLIEGSPDNGLDATGSLRRKASSKKTSAASKKAANLNGLNPGQLTGGVSGVPGVPPTNSAAQAAAAAAAAVAAMSHELEGSPVGVGMGGNLPSPYDTSSMYSNAMAAPLANGNPNTGAKQPPSYEDCIKNAQSMQSLQGNGLDMIKLDNYAYSMGSPFQQELLNGQGLGMNGNGQRNGVGPGVLPGGLCGMGGLSGAGNGNSHEQGLSPPYSNQSPPHSVQSSLALSPHAYLGSPSPAKSRPSLPTSPTHIQAMRHATQQKQFGGSNLNSLLGGANGGGVVGGGGGGGGGVGQGPQNSPVSLGIISPTGSDMGIMLAPPQSSKNSAIMQTISPQQQQQQQQQQQQQHQQQQQQQQQQQQQQQQQLGGLEFGSAGLDLNGFCGSPDSFHSGQMNPPSIQSSMSGSSPSTNMLSPSSQHNQQAFYQYLTPSSQHSGGHTPQHLVQTLDSYPTPSPESPGHWSSSSPRSNSDWSEGVQSPAANNLYISGGHQANKGSEAIYI | – | binds
